# According to patent publication US20210388087A1 (Chugai, published 2021):
# Numbering of substitutions follows the chain as printed. Names may count otherwise.
# B1: dBBDu183H F100gQ / dBBDu072L (antibody, name in Kabat numbering, V domains shown)
# VH: QVQLVESGGGLVQPGRSLRLSCAASGFTFSNAWMHWVRQAPGKGLEWVAQIKDKGNAYAAYYAPSVKGRFTISRDDSKNSIYLQMNSLKTEDTAVYYCHYVHYASASTVLPAQGVDAWGQGTTVTVSS
# VL: DIVMTQSPLSLPVTPGEPASISCQASQELVHMNRNTYLHWYQQKPGQAPRLLIYKVSNRFPGVPDRFSGSGSGTDFTLKISRVEAEDVGVYYCAQGTSVPFTFGQGTKLEIK
# notes: as m1, one VH change
# B2: dBBDu183H H96T / dBBDu072L (antibody, name in Kabat numbering, V domains shown)
# VH: B1 VH with H102T, Q113F
# VL: B1 VL
# notes: as m1, one VH change
# B3: dBBDu183H G65F / dBBDu072L (antibody, name in Kabat numbering, V domains shown)
# VH: B1 VH with G68F, Q113F
# VL: B1 VL
# notes: as m1, one VH change
# B4: dBBDu183H F100gW / dBBDu072L (antibody, name in Kabat numbering, V domains shown)
# VH: B1 VH with Q113W
# VL: B1 VL
# notes: as m1, one VH change
# B5: dBBDu183H G65T / dBBDu072L (antibody, name in Kabat numbering, V domains shown)
# VH: B1 VH with G68T, Q113F
# VL: B1 VL
# notes: as m1, one VH change
# B6: dBBDu183H G65Q / dBBDu072L (antibody, name in Kabat numbering, V domains shown)
# VH: B1 VH with G68Q, Q113F
# VL: B1 VL
# notes: as m1, one VH change
# B7: dBBDu183H G65W / dBBDu072L (antibody, name in Kabat numbering, V domains shown)
# VH: B1 VH with G68W, Q113F
# VL: B1 VL
# notes: as m1, one VH change
# B8: dBBDu183H K64F / dBBDu072L (antibody, name in Kabat numbering, V domains shown)
# VH: B1 VH with K67F, Q113F
# VL: B1 VL
# notes: as m1, one VH change
# B9: dBBDu183H L100dV / dBBDu072L (antibody, name in Kabat numbering, V domains shown)
# VH: B1 VH with L110V, Q113F
# VL: B1 VL
# notes: as m1, one VH change
# B10: dBBDu183H K64N / dBBDu072L (antibody, name in Kabat numbering, V domains shown)
# VH: B1 VH with K67N, Q113F
# VL: B1 VL
# notes: as m1, one VH change
# B11: dBBDu183H P61E / dBBDu072L (antibody, name in Kabat numbering, V domains shown)
# VH: B1 VH with P64E, Q113F
# VL: B1 VL
# notes: as m1, one VH change
# B12: dBBDu183H K64D / dBBDu072L (antibody, name in Kabat numbering, V domains shown)
# VH: B1 VH with K67D, Q113F
# VL: B1 VL
# notes: as m1, one VH change
# B13: dBBDu183H G65K / dBBDu072L (antibody, name in Kabat numbering, V domains shown)
# VH: B1 VH with G68K, Q113F
# VL: B1 VL
# notes: as m1, one VH change
# B14: dBBDu183H H93N / dBBDu072L (antibody, name in Kabat numbering, V domains shown)
# VH: B1 VH with H99N, Q113F
# VL: B1 VL
# notes: as m1, one VH change
# B15: dBBDu183H G65D / dBBDu072L (antibody, name in Kabat numbering, V domains shown)
# VH: B1 VH with G68D, Q113F
# VL: B1 VL
# notes: as m1, one VH change
# B16: dBBDu183H G65E / dBBDu072L (antibody, name in Kabat numbering, V domains shown)
# VH: B1 VH with G68E, Q113F
# VL: B1 VL
# notes: as m1, one VH change
# B17: dBBDu183H G65N / dBBDu072L (antibody, name in Kabat numbering, V domains shown)
# VH: B1 VH with G68N, Q113F
# VL: B1 VL
# notes: as m1, one VH change
# B18: dBBDu183H F100gV / dBBDu072L (antibody, name in Kabat numbering, V domains shown)
# VH: B1 VH with Q113V
# VL: B1 VL
# notes: as m1, one VH change
# B19: dBBDu183H K64H / dBBDu072L (antibody, name in Kabat numbering, V domains shown)
# VH: B1 VH with K67H, Q113F
# VL: B1 VL
# notes: as m1, one VH change
# B20: dBBDu183H G65H / dBBDu072L (antibody, name in Kabat numbering, V domains shown)
# VH: B1 VH with G68H, Q113F
# VL: B1 VL
# notes: as m1, one VH change
# B21: dBBDu183H L100dE / dBBDu072L (antibody, name in Kabat numbering, V domains shown)
# VH: B1 VH with L110E, Q113F
# VL: B1 VL
# notes: as m1, one VH change
# B22: dBBDu183H G65V / dBBDu072L (antibody, name in Kabat numbering, V domains shown)
# VH: B1 VH with G68V, Q113F
# VL: B1 VL
# notes: as m1, one VH change
# B23: dBBDu183H P61G / dBBDu072L (antibody, name in Kabat numbering, V domains shown)
# VH: B1 VH with P64G, Q113F
# VL: B1 VL
# notes: as m1, one VH change
# B24: dBBDu183H L100dW / dBBDu072L (antibody, name in Kabat numbering, V domains shown)
# VH: B1 VH with L110W, Q113F
# VL: B1 VL
# notes: as m1, one VH change
# B25: dBBDu183H K64R / dBBDu072L (antibody, name in Kabat numbering, V domains shown)
# VH: B1 VH with K67R, Q113F
# VL: B1 VL
# notes: as m1, one VH change
# B26: dBBDu183H H96V / dBBDu072L (antibody, name in Kabat numbering, V domains shown)
# VH: B1 VH with H102V, Q113F
# VL: B1 VL
# notes: as m1, one VH change
# B27: dBBDu183H F100gY / dBBDu072L (antibody, name in Kabat numbering, V domains shown)
# VH: B1 VH with Q113Y
# VL: B1 VL
# notes: as m1, one VH change
# B28: dBBDu183H H96F / dBBDu072L (antibody, name in Kabat numbering, V domains shown)
# VH: B1 VH with H102F, Q113F
# VL: B1 VL
# notes: as m1, one VH change
# B29: dBBDu183H L100dS / dBBDu072L (antibody, name in Kabat numbering, V domains shown)
# VH: B1 VH with L110S, Q113F
# VL: B1 VL
# notes: as m1, one VH change
# B30: dBBDu183H G65R / dBBDu072L (antibody, name in Kabat numbering, V domains shown)
# VH: B1 VH with G68R, Q113F
# VL: B1 VL
# notes: as m1, one VH change
# B31: dBBDu183H H96W / dBBDu072L (antibody, name in Kabat numbering, V domains shown)
# VH: B1 VH with H102W, Q113F
# VL: B1 VL
# notes: as m1, one VH change
# B32: dBBDu183H K64S / dBBDu072L (antibody, name in Kabat numbering, V domains shown)
# VH: B1 VH with K67S, Q113F
# VL: B1 VL
# notes: as m1, one VH change
# B33: dBBDu183H K64G / dBBDu072L (antibody, name in Kabat numbering, V domains shown)
# VH: B1 VH with K67G, Q113F
# VL: B1 VL
# notes: as m1, one VH change
# B34: dBBDu183H L100dK / dBBDu072L (antibody, name in Kabat numbering, V domains shown)
# VH: B1 VH with L110K, Q113F
# VL: B1 VL
# notes: as m1, one VH change
# B35: dBBDu183H H96Y / dBBDu072L (antibody, name in Kabat numbering, V domains shown)
# VH: B1 VH with H102Y, Q113F
# VL: B1 VL
# notes: as m1, one VH change
# B36: dBBDu183H F100gS / dBBDu072L (antibody, name in Kabat numbering, V domains shown)
# VH: B1 VH with Q113S
# VL: B1 VL
# notes: as m1, one VH change
# B37: dBBDu183H K64Y / dBBDu072L (antibody, name in Kabat numbering, V domains shown)
# VH: B1 VH with K67Y, Q113F
# VL: B1 VL
# notes: as m1, one VH change
# B38: dBBDu183H G65S / dBBDu072L (antibody, name in Kabat numbering, V domains shown)
# VH: B1 VH with G68S, Q113F
# VL: B1 VL
# notes: as m1, one VH change
# B39: dBBDu183H K64T / dBBDu072L (antibody, name in Kabat numbering, V domains shown)
# VH: B1 VH with K67T, Q113F
# VL: B1 VL
# notes: as m1, one VH change
# B40: dBBDu183H K64W / dBBDu072L (antibody, name in Kabat numbering, V domains shown)
# VH: B1 VH with K67W, Q113F
# VL: B1 VL
# notes: as m1, one VH change
# B41: dBBDu183H L100dQ / dBBDu072L (antibody, name in Kabat numbering, V domains shown)
# VH: B1 VH with L110Q, Q113F
# VL: B1 VL
# notes: as m1, one VH change
# B42: dBBDu183H G65Y / dBBDu072L (antibody, name in Kabat numbering, V domains shown)
# VH: B1 VH with G68Y, Q113F
# VL: B1 VL
# notes: as m1, one VH change
# B43: dBBDu183H K64V / dBBDu072L (antibody, name in Kabat numbering, V domains shown)
# VH: B1 VH with K67V, Q113F
# VL: B1 VL
# notes: as m1, one VH change
# B44: dBBDu183H P61D / dBBDu072L (antibody, name in Kabat numbering, V domains shown)
# VH: B1 VH with P64D, Q113F
# VL: B1 VL
# notes: as m1, one VH change
# B45: dBBDu183H P61F / dBBDu072L (antibody, name in Kabat numbering, V domains shown)
# VH: B1 VH with P64F, Q113F
# VL: B1 VL
# notes: as m1, one VH change
# B46: dBBDu183H F100gT / dBBDu072L (antibody, name in Kabat numbering, V domains shown)
# VH: B1 VH with Q113T
# VL: B1 VL
# notes: as m1, one VH change
# B47: dBBDu183H K64Q / dBBDu072L (antibody, name in Kabat numbering, V domains shown)
# VH: B1 VH with K67Q, Q113F
# VL: B1 VL
# notes: as m1, one VH change
# Biological target: T1, Human CD137 ECD (human)
# T1 construct: also called 4-1BB
# T1 sequence (chain, as listed by the source limits assumed): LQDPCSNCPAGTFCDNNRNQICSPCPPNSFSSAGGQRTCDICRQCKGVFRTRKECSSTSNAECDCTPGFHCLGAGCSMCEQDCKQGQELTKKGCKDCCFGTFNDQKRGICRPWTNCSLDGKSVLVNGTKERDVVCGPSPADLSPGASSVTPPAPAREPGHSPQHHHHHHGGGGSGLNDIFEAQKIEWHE
# Assay: SPR, vs parent H183/L072
row,fold change of affinity [fold],Binder
1,0.8,B1
2,0.5,B2
3,1.3,B3
4,0.6,B4
5,1.3,B5
6,1.2,B6
7,1.3,B7
8,1.1,B8
9,0.5,B9
10,1,B10
11,0.7,B11
12,1.1,B12
13,1.1,B13
14,0.1,B14
15,1.3,B15
16,1.3,B16
17,1.2,B17
18,0.5,B18
19,1.1,B19
20,1.2,B20
21,0.4,B21
22,1.2,B22
23,1,B23
24,0.2,B24

row,fold change of affinity [fold],Binder
1,1.1,B25
2,0.8,B26
3,1,B27
4,1.4,B28
5,0.5,B29
6,1.1,B30
7,1.6,B31
8,1.2,B32
9,1.1,B33
10,0.7,B34
11,3.3,B35
12,0.4,B36
13,1.1,B37
14,1.2,B38
15,1.1,B39
16,1.2,B40
17,0.5,B41
18,1.3,B42
19,1,B43
20,0.7,B44
21,0.7,B45
22,0.7,B46
23,1.1,B47
